Experimental data as given in patent publication US12667625B2, “Antibody-drug conjucates and their uses for the treatment of cancer” (INATHERYS, priority 2018, dated 2026).

How the values were obtained:
[1] = tested on: MEC-1 cell line (CD71+); assay: Comparative binding on MEC-1 cell line by flow cytometry; settings: biotinylated antibodies, serial dilutions 5 to 0.05 ug/mL, streptavidin Alexa F488
Procedure: (§1) Serial dilutions (5 to 0.05 ug/mL) of both biotinylated antibodies (antibody A24 and antibody of ADC INA01-SDV1) were performed and incubated on THP-1 and MEC-1 cell lines. The binding of the diluted antibodies was detected by Flow cytometry using streptavidin Alexa F488 (available at ThermoFisher scientific).

[2] = tested on: THP-1 cell line (CD71+); assay: Comparative binding on THP-1 cell line by flow cytometry; settings: biotinylated antibodies, serial dilutions 5 to 0.05 ug/mL, streptavidin Alexa F488
Procedure: as §1

B1: A24: murine monoclonal anti-human TfR antibody as disclosed in WO 2005/111082 (antibody, listed as Homo sapiens, V domains shown)
VH: QIQLVQSGPELKKPGETVKISCKASGYTFTNQGMNWVKQAPGKGLKWMGWINTYTGEPINADDFKGRFAISLETSASTAYLQINNLKNEDMATYFCVREGWDSMDYWGQGTSVTVSS
VL: QIVLTQSPAIMSASPGEKVTITCSASSSVNYMHWFQQKPGTSPKLWIYSTSNLASGVPARFSGSGSGTSYSLTISRMEAEDAATYYCQQRSSYPLTFGAGTKLELKR
affinity to the CD71+ cell line (binding) [1]: identical affinity | affinity to the CD71+ cell line (binding) [2]: identical affinity
